Assay results published in patent US20220293215A1 (BROAD INSTITUTE, published 2022).

The binders below were run against T1, I-A^b (MHCII) of murine bone marrow-derived dendritic cells from C57BL/6J mice (mouse, UniProt P14434 24-256; P14483 28-265) (assay: MHCII peptidomics: Y3P IP of peptide-MHCII from BMDCs exposed to live Listeria, iTRAQ LC-MS/MS).
T1 construct: whole, on cells; also called H2-IA
T1 sequence (MHC II alpha, looked up): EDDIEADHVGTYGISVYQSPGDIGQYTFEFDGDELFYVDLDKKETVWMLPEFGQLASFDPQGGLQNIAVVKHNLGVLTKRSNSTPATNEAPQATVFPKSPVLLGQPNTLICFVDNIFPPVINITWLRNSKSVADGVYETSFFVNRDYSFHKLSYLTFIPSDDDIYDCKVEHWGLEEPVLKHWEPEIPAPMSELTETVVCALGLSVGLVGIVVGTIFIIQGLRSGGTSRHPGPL
T1 sequence (MHC II beta, looked up): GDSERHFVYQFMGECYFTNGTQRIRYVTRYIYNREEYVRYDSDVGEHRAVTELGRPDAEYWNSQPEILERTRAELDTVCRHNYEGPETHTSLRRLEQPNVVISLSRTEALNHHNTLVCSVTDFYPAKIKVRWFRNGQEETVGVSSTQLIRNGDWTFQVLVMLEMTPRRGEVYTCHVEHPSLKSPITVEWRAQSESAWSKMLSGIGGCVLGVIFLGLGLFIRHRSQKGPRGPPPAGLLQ

| Binder | logFC |
| --- | --- |
| RYVFDTAKATAASSYPGSDETPPVVNPGETNPP [Listeria peptide RYVFDTAKATAASSYPGSDETPPVVNPGETNPP (lmo2185)] | 0.634 log2 fold change, Listeria 6 hr versus 10 min |
| YVFDTAKATAASSYPGSDETPP [Listeria peptide YVFDTAKATAASSYPGSDETPP (lmo2185)] | 0.611 log2 fold change, Listeria 6 hr versus 10 min |
| RYVFDTAKATAASSYPGSDETPP [Listeria peptide RYVFDTAKATAASSYPGSDETPP (lmo2185)] | 0.271 log2 fold change, Listeria 6 hr versus 10 min |
| YPGSDETPPVVNPGE [Listeria peptide YPGSDETPPVVNPGE (lmo2185)] | 0.785 log2 fold change, Listeria 6 hr versus 10 min |
| SSYPGSDETPPVVNPGETNPP [Listeria peptide SSYPGSDETPPVVNPGETNPP (lmo2185)] | 0.292 log2 fold change, Listeria 6 hr versus 10 min |
| YPGSDETPPVVNPGETN [Listeria peptide YPGSDETPPVVNPGETN (lmo2185)] | 1.86 log2 fold change, Listeria 6 hr versus 10 min |
| AVDDTTVKFTLPTVAPAFENT [Listeria peptide AVDDTTVKFTLPTVAPAFENT (lmo0135)] | 0.871 log2 fold change, Listeria 6 hr versus 10 min |
| VDDTTVKFTLPTVAPAFENT (also called lmo0135_150-169) [Listeria peptide VDDTTVKFTLPTVAPAFENT (lmo0135)] | 0.844 log2 fold change, Listeria 6 hr versus 10 min |
| DDTTVKFTLPTVAPAFENT [Listeria peptide DDTTVKFTLPTVAPAFENT (lmo0135)] | 0.786 log2 fold change, Listeria 6 hr versus 10 min |
| AVDDTTVKFTLPTVAPAFENTIK [Listeria peptide AVDDTTVKFTLPTVAPAFENTIK (lmo0135)] | 0.464 log2 fold change, Listeria 6 hr versus 10 min |
| VDDTTVKFTLPTVAPAFE [Listeria peptide VDDTTVKFTLPTVAPAFE (lmo0135)] | 0.455 log2 fold change, Listeria 6 hr versus 10 min |
| DDTTVKFTLPTVAPAFE [Listeria peptide DDTTVKFTLPTVAPAFE (lmo0135)] | 0.387 log2 fold change, Listeria 6 hr versus 10 min |
| DDTTVKFTLPTVAPAFEN [Listeria peptide DDTTVKFTLPTVAPAFEN (lmo0135)] | 0.26 log2 fold change, Listeria 6 hr versus 10 min |
| TTVKFTLPTVAPAFENT [Listeria peptide TTVKFTLPTVAPAFENT (lmo0135)] | 0.0598 log2 fold change, Listeria 6 hr versus 10 min |
| DGLTWHDGKPLTADDV [Listeria peptide DGLTWHDGKPLTADDV (lmo0135)] | 1.02 log2 fold change, Listeria 6 hr versus 10 min |
| GTKEKVVATPVSNVSTSSA (also called lmo0186_285-303) [Listeria peptide GTKEKVVATPVSNVSTSSA (lmo0186)] | 0.489 log2 fold change, Listeria 6 hr versus 10 min |
| TKEKVVATPVSNVSTSS [Listeria peptide TKEKVVATPVSNVSTSS (lmo0186)] | -0.286 log2 fold change, Listeria 6 hr versus 10 min |
| KEKVVATPVSNVSTSS [Listeria peptide KEKVVATPVSNVSTSS (lmo0186)] | -0.21 log2 fold change, Listeria 6 hr versus 10 min |
| GTKEKVVATPVSNVST [Listeria peptide GTKEKVVATPVSNVST (lmo0186)] | 0.0371 log2 fold change, Listeria 6 hr versus 10 min |
| GGINQAYTGSTALSDGLN (also called lmo2360_289-306) [Listeria peptide GGINQAYTGSTALSDGLN (lmo2360)] | 0.555 log2 fold change, Listeria 6 hr versus 10 min |
| GINQAYTGSTALSDG [Listeria peptide GINQAYTGSTALSDG (lmo2360)] | 0.261 log2 fold change, Listeria 6 hr versus 10 min |
| GGINQAYTGSTALSDG [Listeria peptide GGINQAYTGSTALSDG (lmo2360)] | 0.239 log2 fold change, Listeria 6 hr versus 10 min |
| STVVVEAGDTLWGIAQSKGTT (also called lmo0582a_26-46) [Listeria peptide STVVVEAGDTLWGIAQSKGTT (lmo0582 (lap))] | 0.489 log2 fold change, Listeria 6 hr versus 10 min |
| IAVTAFAAPTIASA (also called lmo0582b_12-25) [Listeria peptide IAVTAFAAPTIASA (lmo0582 (lap))] | 0.181 log2 fold change, Listeria 6 hr versus 10 min |
| VETKADIDALSLLSDKIFVTNQT [Listeria peptide VETKADIDALSLLSDKIFVTNQT (lmo1451 (ispH))] | 1.06 log2 fold change, Listeria 6 hr versus 10 min |
| EAKELVDNAPKALKEGIA [Listeria peptide EAKELVDNAPKALKEGIA (lmo0251 (rplL))] | 0.93 log2 fold change, Listeria 6 hr versus 10 min |
| APGQETQHYYGLPVADSAIDR (also called lmo2558_533-553) [Listeria peptide APGQETQHYYGLPVADSAIDR (lmo2558 (ami))] | 0.856 log2 fold change, Listeria 6 hr versus 10 min |
| ADFRYVFDTAKATAASSYPG (also called lmo2185_293-312) [Listeria peptide ADFRYVFDTAKATAASSYPG (lmo2185)] | 1.57 log2 fold change, Listeria 6 hr versus 10 min |
| ADFRYVFDTAKATAASSYPGSDETPP [Listeria peptide ADFRYVFDTAKATAASSYPGSDETPP (lmo2185)] | 1.56 log2 fold change, Listeria 6 hr versus 10 min |
| DFRYVFDTAKATAASSYPGSDETPP [Listeria peptide DFRYVFDTAKATAASSYPGSDETPP (lmo2185)] | 0.678 log2 fold change, Listeria 6 hr versus 10 min |
